For 2 molecules, Kd results are on record in publication PMC11540549 (Biochemistry, 2019).

Assay [1] deals with TCF19 PHD R330Y (UniProt Q9Y242). The experiment in a line: NMR titration.
In assay [2] the target is TCF19 PHD W307Y (UniProt Q9Y242). In words: NMR titration.
Assay [3] has as its target TCF19 PHD C324A (UniProt Q9Y242). In words: NMR titration.
Assay [4] has as its target T1, TCF19 (DDCAC) PHD (UniProt Q9Y242 296-342).
T1 sequence: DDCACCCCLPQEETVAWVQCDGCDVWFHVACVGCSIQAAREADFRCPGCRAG
The experiment in a line: other fluorescence titration.

No end group written: not given here.

Turning to “H3K4me3 peptide (residues 1-12) (from UniProt P68431 2-13)”, the Kd in assay [1] worked out at 400 µM; in assay [2], 2000 µM; in assay [3], 440 µM.

As for ARTK(Me3)QTARKSTG (peptide, UniProt P68431 2-13, looked up) [H3K4me3 peptide (residues 1-12)], binding in assay [4] was put at a Kd of 4.7 µM.
